How the values were obtained:
[1] = molecular target: T1, human neonatal Fc-receptor (FcRn), soluble extracellular domain with His-Avi Tag, co-expressed with … (human, UniProt P55899 24-297; P61769 21-119, biotinylated (Avi Tag) for the affinity column); experiment: FcRn affinity chromatography
T1 construct: SPR: amine-coupled to a CM5 chip (400 RU), pH 6.0; also called huFcRn; FcRn/beta2-microglobulin
Method: Antibody samples containing 50 to 100 μg of protein were adjusted to pH 5.5 and applied to the FcRn column using ÄKTA explorer 10 XT or Dionex Summit (Dionex, Idstein, Germany). The column with 5 cm bed height was then washed with 5-10 column volumes of equilibration buffer 20 mM MES, 150 mM NaCl, pH 5.5. […] For complete elution of modified antibodies, the pH was increased in the gradient up to pH 8.8. The experiments were carried out at room temperature. The elution profile was obtained by continuous measurement of the absorbance at 280 nm. The time taken for an analyte peak, X, to reach the detector after sample injection was called the retention time.

[2] = molecular target: T1, human neonatal Fc-receptor (FcRn), …; experiment: SPR (BIAcore T100), FcRn immobilized on CM5 chip by amine coupling (400 RU), 200 nM antibody injected, PBS 0.05% Tween-20 pH 6.0, room temperature
Method: The binding properties of wild-type antibody and the mutants to FcRn were analyzed by surface plasmon resonance (SPR) technology using a BIAcore T100 instrument (BIAcore AB, Uppsala, Sweden). […] In the current assay, the FcRn receptor was immobilized onto a BIAcore CM5-biosensor chip (GE Healthcare Bioscience, Uppsala, Sweden) via amine coupling to a level of 400 Response units (RU). The assay was carried out at room temperature with PBS, 0.05% Tween-20TM pH 6.0 (GE Healthcare Bioscience) as running and dilution buffer. 200 nM of antibody samples were injected at a flow rate of 50 μL/min at room temperature. Association time was 180 seconds, dissociation phase took 360 seconds. Regeneration of the chip surface was reached by a short injection of HBS-P, pH 8.0. Evaluation of SPR-data was performed by comparison of the biological response signal height at 180 seconds after injection and at 300 seconds after injection. The corresponding parameters are the RU max level (180 seconds after injection) and late stability (300 seconds after end of injection).

T1 sequence (P55899 24-297 limits assumed, chain 1 of 2): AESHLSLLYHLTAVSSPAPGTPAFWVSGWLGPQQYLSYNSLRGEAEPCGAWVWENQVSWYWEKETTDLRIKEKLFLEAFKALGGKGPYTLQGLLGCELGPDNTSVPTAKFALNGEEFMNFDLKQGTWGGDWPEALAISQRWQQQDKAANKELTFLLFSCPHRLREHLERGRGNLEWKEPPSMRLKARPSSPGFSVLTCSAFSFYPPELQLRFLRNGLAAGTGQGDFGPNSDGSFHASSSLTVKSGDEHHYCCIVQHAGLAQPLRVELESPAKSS
T1 sequence (P61769 21-119 limits assumed, chain 2 of 2): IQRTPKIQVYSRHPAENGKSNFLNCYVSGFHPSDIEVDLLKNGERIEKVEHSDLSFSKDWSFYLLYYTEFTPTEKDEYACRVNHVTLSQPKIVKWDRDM

Binder | retention time on FcRn affinity column [1] [min] | binding result [2]
<IGF-1R> IgG1 knob wt, hole H310A, H433A, Y436A (antibody, also called IGF-1R 0035; anti-IGF-1R antibody (knobs-into-holes), one chain with H310A/H433A/Y436A) light: not shown heavy 1: not shown heavy 2: QVELVESGGGVVQPGRSQRLSCAASGFTFSSYGMHWVRQAPGKGLEWVAIIWFDGSSTYYADSVRGRFTISRDNSKNTLYLQMNSLRAEDTAVYFCARELGRRYFDLWGRGTLVSVSSASTKGPSVFPLAPSSKSTSGGTAALGCLVKDYFPEPVTVSWNSGALTSGVHTFPAVLQSSGLYSLSSVVTVPSSSLGTQTYICNVNHKPSNTKVDKKVEPKSCDKTHTCPPCPAPELLGGPSVFLFPPKPKDTLMISRTPEVTCVVVDVSHEDPEVKFNWYVDGVEVHNAKTKPREEQYNSTYRVVSVLTVLAQDWLNGKEYKCKVSNKALPAPIEKTISKAKGQPREPQVCTLPPSRDELTKNQVSLSCAVKGFYPSDIAVEWESNGQPENNYKTTPPVLDSDGSFFLVSKLTVDKSRWQQGNVFSCSVMHEALANHATQKSLSLSPGK | 42.4 | 
<IGF-1R> IgG1 knob wt, hole L251D, L314D, L432D (antibody, T0033 lists L234A/L235A/P329G for IGF-1R 0037; also called IGF-1R 0037; anti-IGF-1R antibody (knobs-into-holes), one chain with L251D/L314D/L432D) light: not shown heavy 1: not shown heavy 2: QVELVESGGGVVQPGRSQRLSCAASGFTFSSYGMHWVRQAPGKGLEWVAIIWFDGSSTYYADSVRGRFTISRDNSKNTLYLQMNSLRAEDTAVYFCARELGRRYFDLWGRGTLVSVSSASTKGPSVFPLAPSSKSTSGGTAALGCLVKDYFPEPVTVSWNSGALTSGVHTFPAVLQSSGLYSLSSVVTVPSSSLGTQTYICNVNHKPSNTKVDKKVEPKSCDKTHTCPPCPAPELLGGPSVFLFPPKPKDTDMISRTPEVTCVVVDVSHEDPEVKFNWYVDGVEVHNAKTKPREEQYNSTYRVVSVLTVLHQDWDNGKEYKCKVSNKALPAPIEKTISKAKGQPREPQVCTLPPSRDELTKNQVSLSCAVKGFYPSDIAVEWESNGQPENNYKTTPPVLDSDGSFFLVSKLTVDKSRWQQGNVFSCSVMHEADHNHYTQKSLSLSPGK | 40.9 | 
<IgF-1R> IgG1 knob wt, hole I253A, H310A, H435A (antibody, T0033 lists L234A/L235A/P329G for IGF-1R 0034; also called IGF-1R 0034; anti-IGF-1R antibody (knobs-into-holes), one chain with I253A/H310A/H435A) light: not shown heavy 1: not shown heavy 2: QVELVESGGGVVQPGRSQRLSCAASGFTFSSYGMHWVRQAPGKGLEWVAIIWFDGSSTYYADSVRGRFTISRDNSKNTLYLQMNSLRAEDTAVYFCARELGRRYFDLWGRGTLVSVSSASTKGPSVFPLAPSSKSTSGGTAALGCLVKDYFPEPVTVSWNSGALTSGVHTFPAVLQSSGLYSLSSVVTVPSSSLGTQTYICNVNHKPSNTKVDKKVEPKSCDKTHTCPPCPAPELLGGPSVFLFPPKPKDTLMASRTPEVTCVVVDVSHEDPEVKFNWYVDGVEVHNAKTKPREEQYNSTYRVVSVLTVLAQDWLNGKEYKCKVSNKALPAPIEKTISKAKGQPREPQVCTLPPSRDELTKNQVSLSCAVKGFYPSDIAVEWESNGQPENNYKTTPPVLDSDGSFFLVSKLTVDKSRWQQGNVFSCSVMHEALHNAYTQKSLSLSPGK | 42 | 
<IGF-1R> IgG1 knob wt, hole M252Y, S254T, T256E (antibody, T0033 lists L234A/L235A/P329G for IGF-1R 0036; also called IGF-1R 0036; anti-IGF-1R antibody (knobs-into-holes), one chain with M252Y/S254T/T256E) light: not shown heavy 1: not shown heavy 2: QVELVESGGGVVQPGRSQRLSCAASGFTFSSYGMHWVRQAPGKGLEWVAIIWFDGSSTYYADSVRGRFTISRDNSKNTLYLQMNSLRAEDTAVYFCARELGRRYFDLWGRGTLVSVSSASTKGPSVFPLAPSSKSTSGGTAALGCLVKDYFPEPVTVSWNSGALTSGVHTFPAVLQSSGLYSLSSVVTVPSSSLGTQTYICNVNHKPSNTKVDKKVEPKSCDKTHTCPPCPAPELLGGPSVFLFPPKPKDTLYITREPEVTCVVVDVSHEDPEVKFNWYVDGVEVHNAKTKPREEQYNSTYRVVSVLTVLHQDWLNGKEYKCKVSNKALPAPIEKTISKAKGQPREPQVCTLPPSRDELTKNQVSLSCAVKGFYPSDIAVEWESNGQPENNYKTTPPVLDSDGSFFLVSKLTVDKSRWQQGNVFSCSVMHEALHNHYTQKSLSLSPGK | 57.6 | 
<IGF-1R> IgG1 with M252Y, S254T, T256E (antibody, also called YTE-mutant of anti-IGF-1R antibody) light: not shown heavy: QVELVESGGGVVQPGRSQRLSCAASGFTFSSYGMHWVRQAPGKGLEWVAIIWFDGSSTYYADSVRGRFTISRDNSKNTLYLQMNSLRAEDTAVYFCARELGRRYFDLWGRGTLVSVSSASTKGPSVFPLAPSSKSTSGGTAALGCLVKDYFPEPVTVSWNSGALTSGVHTFPAVLQSSGLYSLSSVVTVPSSSLGTQTYICNVNHKPSNTKVDKKVEPKSCDKTHTCPPCPAPELLGGPSVFLFPPKPKDTLYITREPEVTCVVVDVSHEDPEVKFNWYVDGVEVHNAKTKPREEQYNSTYRVVSVLTVLHQDWLNGKEYKCKVSNKALPAPIEKTISKAKGQPREPQVYTLPPSRDELTKNQVSLTCLVKGFYPSDIAVEWESNGQPENNYKTTPPVLDSDGSFFLYSKLTVDKSRWQQGNVFSCSVMHEALHNHYTQKSLSLSPG |  | binds

Reference: patent US20160151487A1 (Hoffmann-La Roche, published 2016)
